# Test results: patent US20190338048A1
# pKd: −log10 of the molar value. Several values for one entry are separate records, joined by “and”; a condition that tells them apart may be missing. Equal values may be shown once. Read-outs that look alike come from different tables or passages of the source.
# Experiments:
# [1] = target: CAT-2200 lambda light chain T131K_V133S; test: LCCA, SPR
# [2] = target: CAT-2200 lambda light chain T131K_V133S; test: LCCA, SPR; remark: listed apart in the source
# [3] = target: CR8071 lambda light chain L1 of design 2830 (E124K_Y178R); test: SMCA: H1, L1, H2, L2 co-expressed in CHO-3E7
# [4] = target: CR8071 lambda light chain L1 (S180E), designs 2816 and 2827; test: SMCA, System C, LC-MS
# [5] = target: CR8071 lambda light chain L1 (S180E), designs 2816 and 2827; test: SMCA, System C
# [6] = target: CR8071 lambda light chain L1, design 3025 (E124Q_T131R); test: SMCA: H1,L1,H2,L2 co-expressed, protein A, LC-MS
# [7] = target: CR8071 lambda light chain L1, design 3122 (V133D_Y178T); test: SMCA: H1,L1,H2,L2 co-expressed, protein A, LC-MS
# [8] = target: CR8071 lambda light chain L1, design 3878 (K129T_S180E); test: SMCA: H1,L1,H2,L2 co-expressed, protein A, LC-MS
# [9] = target: His-tagged Influenza B Hemagglutinin (B/Brisbane/60/2008) (Influenza B (B/Brisbane/60/2008))
# [10] = target: Pertuzumab kappa light chain V133D; test: LCCA, SPR
# [11] = target: Pertuzumab kappa light chain V133D_Q160E; test: LCCA, SPR
# [12] = target: CAT-2200 lambda light chain E124Q_T131K_V133S; test: LCCA, SPR tag read-out
# [13] = target: Pertuzumab kappa light chain Q124E_V133D_L135W; test: LCCA, SPR tag read-out
# [14] = target: CAT-2200 lambda light chain E124Q_T131K; test: LCCA, SPR
# [15] = target: Pertuzumab kappa light chain Q124E_V133D; test: LCCA, SPR
# [16] = target: CAT-2200 lambda light chain E124Q_T131R; test: LCCA, SPR
# [17] = target: Pertuzumab kappa light chain Q124E_V133D; test: LCCA, SPR; remark: listed apart in the source
# [18] = target: Pertuzumab kappa light chain L135A (L2), N-terminal HA tag; test: LCCA, SPR of light chain tags
# [19] = target: Pertuzumab kappa light chain, wild type (L2), N-terminal HA tag; test: LCCA, SPR of light chain tags
# [20] = target: Pertuzumab kappa light chain L135A (L2), N-terminal HA tag; test: LCCA, SPR of light chain tags; remark: listed apart in the source
# [21] = target: Pertuzumab kappa light chain L135A_T178F (L2), N-terminal HA tag; test: LCCA, SPR of light chain tags
# [22] = target: Pertuzumab kappa light chain, wild type (L2), N-terminal HA tag; test: LCCA, SPR of light chain tags; remark: listed apart in the source
# [23] = target: Pertuzumab kappa light chain T178F (L2), N-terminal HA tag; test: LCCA, SPR of light chain tags
# [24] = target: CAT-2200 lambda light chain T116F_S176F (L1), N-terminal FLAG tag; test: LCCA, SPR of light chain tags
# [25] = target: Pertuzumab light chain (kappa) V133G_S176D_T180E, HA-tagged; test: LCCA
# [26] = target: Pertuzumab light chain (kappa) V133G_S176D_T178E, HA-tagged; test: LCCA
# [27] = target: Pertuzumab light chain (kappa) V133G_S176D_T180E, HA-tagged; test: LCCA; remark: listed apart in the source
# [28] = target: Pertuzumab light chain (kappa) V133G_S176D_T180E, HA-tagged; test: LCCA; remark: listed apart in the source
# [29] = target: Pertuzumab light chain (kappa) V133G_S176D_T178E, HA-tagged; test: LCCA; remark: listed apart in the source
# [30] = target: CAT-2200 light chain (lambda) E124Q_T131R, FLAG-tagged; test: LCCA
# [31] = target: CAT-2200 light chain (lambda) E124Q_T131K, FLAG-tagged; test: LCCA
# [32] = target: Pertuzumab light chain (kappa) Q124E_V133D, HA-tagged; test: LCCA
# [33] = target: Pertuzumab light chain (kappa) Q124E_V133D, HA-tagged; test: LCCA; remark: listed apart in the source
# [34] = target: SGN-CD19a kappa light chain L2 of design 2830 (T178E_T180E); test: SMCA: H1, L1, H2, L2 co-expressed in CHO-3E7
# [35] = target: SGN-CD19a kappa light chain L2, design 3025 (S131D_V133G_T178F); test: SMCA: H1,L1,H2,L2 co-expressed, protein A, LC-MS
# [36] = target: SGN-CD19a kappa light chain L2, design 3025 (S131D_V133G_T178F); test: SMCA: H1,L1,H2,L2 co-expressed, protein A, LC-MS; remark: listed apart in the source
# [37] = target: SGN-CD19a kappa light chain L2, design 3122 (S176K_T178K); test: SMCA: H1,L1,H2,L2 co-expressed, protein A, LC-MS
# [38] = target: SGN-CD19a kappa light chain L2, design 3122 (S176K_T178K); test: SMCA: H1,L1,H2,L2 co-expressed, protein A, LC-MS; remark: listed apart in the source
# [39] = target: SGN-CD19a kappa light chain L2, design 3878 (Q124R_Q160K_T178R); test: SMCA: H1,L1,H2,L2 co-expressed, protein A, LC-MS
# [40] = target: SGN-CD19a kappa light chain L2, design 3878 (Q124R_Q160K_T178R); test: SMCA: H1,L1,H2,L2 co-expressed, protein A, LC-MS; remark: listed apart in the source
# [41] = target: SGN-CD19a kappa light chain L2, designs 2892 and 2994 (Q124E_V133D); test: SMCA: H1,L1,H2,L2 co-expressed, protein A, LC-MS
# [42] = target: SGN-CD19a kappa light chain L2, designs 2892 and 2994 (Q124E_V133D); test: SMCA: H1,L1,H2,L2 co-expressed, protein A, LC-MS; remark: listed apart in the source
# [43] = target: SGN-CD19a kappa light chain L2, designs 2892 and 2994 (Q124E_V133D); test: SMCA: H1,L1,H2,L2 co-expressed, protein A, LC-MS; remark: listed apart in the source
# [44] = target: SGN-CD19a kappa light chain L2, designs 2892 and 2994 (Q124E_V133D); test: SMCA: H1,L1,H2,L2 co-expressed, protein A, LC-MS; remark: listed apart in the source
substance,measurement,setting,value
CAT-2200 Fab heavy chain L143D_K145T_Q179E,H1L1:H1L2 normalized median scalar value ln(r1/f1),[1],0.58
same,H1L1:H1L2 normalized median scalar value ln(r1/f1),[2],0.41
"CR8071 heavy chain H1 of design 2830 (L143E_K145T_Q179E), full-length with heterodimeric IgG1 Fc",% H1L1 Pairing,[3],28%
same,Change in % H1L1 Pairing with respect to wild type,[3],-20.4%
"CR8071 heavy chain H1, design 2816 (Q179K)",Change in % H1L1 Pairing with respect to wild type,[4],17%
same,% H1L1 Pairing,[5],99.3%
"CR8071 heavy chain H1, design 2827 (S186R)",Change in % H1L1 Pairing with respect to wild type,[4],15.9%
same,% H1L1 Pairing,[5],98.2%
"CR8071 heavy chain H1, design 3025 (L143D_K145T)",% H1L1 Pairing,[6],43.9%
same,Change in % H1L1 Pairing with respect to wild type,[6],-4.5%
"CR8071 heavy chain H1, design 3122 (S186K_S188T)",% H1L1 Pairing,[7],65.8%
same,Change in % H1L1 Pairing with respect to wild type,[7],-16.5%
"CR8071 heavy chain H1, design 3878 (Q179K)",% H1L1 Pairing,[8],99.3%
same,Change in % H1L1 Pairing with respect to wild type,[8],17%
"CR8071 wild type one-armed antibody (OAA), FLAG-tagged light chain",pKd,[9],9.48
"CR8071 wild type one-armed antibody (OAA), no tags",pKd,[9],9.41 and 9.42
Pertuzumab Fab heavy chain L143I_S186K,H2L2:H2L1 normalized median ratio,[10],72%
same,H2L2:H2L1 normalized median scalar value ln(r1/f1),[10],0.92
same,H2L2:H2L1 normalized median scalar value ln(r1/f1),[11],1.5
same,H2L2:H2L1 normalized median ratio,[2],28%
same,H2L2:H2L1 normalized median ratio,[12],16%
same,H2L2:H2L1 median scalar value,[13],1.69 ln(ratio)
same,H2L2:H2L1 normalized median ratio,[13],84%
Pertuzumab Fab heavy chain L143K,H2L2:H2L1 normalized median ratio,[14],8%
same,H2L2:H2L1 normalized median ratio,[15],92%
same,H2L2:H2L1 normalized median scalar value ln(r1/f1),[15],2.48
same,H2L2:H2L1 normalized median ratio,[16],9%
same,H2L2:H2L1 normalized median ratio,[17],91%
same,H2L2:H2L1 normalized median scalar value ln(r1/f1),[17],2.3
"Pertuzumab Fab heavy chain V190F (H2), ABD2-His6 tagged",H2L2:H2L1 normalized median ratio,[18],42%
same,H2L2:H2L1 normalized median scalar value ln(r1/f1),[18],-0.34
same,H2L2:H2L1 normalized median ratio,[19],65%
same,H2L2:H2L1 normalized median scalar value ln(r1/f1),[19],0.6
same,H2L2:H2L1 normalized median ratio,[20],44%
same,H2L2:H2L1 normalized median scalar value ln(r1/f1),[20],-0.26
same,H2L2:H2L1 normalized median ratio,[21],60%
same,H2L2:H2L1 normalized median scalar value ln(r1/f1),[21],0.41
same,H2L2:H2L1 normalized median ratio,[22],62%
same,H2L2:H2L1 normalized median scalar value ln(r1/f1),[22],0.47
same,H2L2:H2L1 normalized median ratio,[23],71%
same,H2L2:H2L1 normalized median scalar value ln(r1/f1),[23],0.9
same,H2L2:H2L1 normalized median ratio,[24],29%
Pertuzumab heavy chain Fab construct L124R_Q179K,H2L2:H2L1 normalized median scalar value ln(r1/f1),[25],0.95
same,H2L2:H2L1 normalized median scalar value ln(r1/f1),[26],0.77
same,H2L2:H2L1 normalized median scalar value ln(r1/f1),[27],0.63
same,H2L2:H2L1 normalized median scalar value ln(r1/f1),[28],0.97
same,H2L2:H2L1 normalized median scalar value ln(r1/f1),[29],0.69
Pertuzumab heavy chain Fab construct L124R_S186R,H2L2:H2L1 normalized median scalar value ln(r1/f1),[25],1.5
same,H2L2:H2L1 normalized median scalar value ln(r1/f1),[26],1.04
same,H2L2:H2L1 normalized median scalar value ln(r1/f1),[27],1.21
same,H2L2:H2L1 normalized median scalar value ln(r1/f1),[28],1.47
same,H2L2:H2L1 normalized median scalar value ln(r1/f1),[29],1.18
Pertuzumab heavy chain Fab construct L143K,H2L2:H2L1 normalized median ratio (H2L1 share),[30],9%
same,H2L2:H2L1 normalized median ratio (H2L1 share),[31],8%
same,"H2L2:H2L1 normalized median ratio, H2L2 share",[32],92%
same,H2L2:H2L1 normalized median scalar value ln(r1/f1),[32],2.48
same,"H2L2:H2L1 normalized median ratio, H2L2 share",[33],91%
same,H2L2:H2L1 normalized median scalar value ln(r1/f1),[33],2.3
Pertuzumab heavy chain Fab construct L143R,H2L2:H2L1 normalized median ratio (H2L1 share),[30],4%
same,"H2L2:H2L1 normalized median ratio, H2L2 share",[33],96%
same,H2L2:H2L1 normalized median scalar value ln(r1/f1),[33],3.06
"SGN-CD19a heavy chain H2 of design 2830 (S186R), full-length with heterodimeric IgG1 Fc",% H2L2 Pairing,[34],99.6%
same,Change in % H2L2 Pairing with respect to wild type,[34],20%
"SGN-CD19a heavy chain H2, design 3025 (S188K)",% H2L2 Pairing,[35],99.7%
same,Change in % H2L2 Pairing with respect to wild type,[35],20.1%
same,% H2L2 Pairing,[36],87.9%
same,Change in % H2L2 Pairing with respect to wild type,[36],33.7%
"SGN-CD19a heavy chain H2, design 3122 (K145T_V177D_S188D)",% H2L2 Pairing,[37],99.8%
same,Change in % H2L2 Pairing with respect to wild type,[37],39.9%
same,% H2L2 Pairing,[38],89.7%
same,Change in % H2L2 Pairing with respect to wild type,[38],52.1%
"SGN-CD19a heavy chain H2, design 3878 (L143E_K145T_S188L)",% H2L2 Pairing,[39],28.7%
same,Change in % H2L2 Pairing with respect to wild type,[39],-8.9%
same,% H2L2 Pairing,[40],67.4%
same,Change in % H2L2 Pairing with respect to wild type,[40],7.5%
"SGN-CD19a heavy chain H2, designs 2892 and 2994 (L143K)",% H2L2 Pairing,[41],99.7%
same,Change in % H2L2 Pairing with respect to wild type,[41],20.1%
same,% H2L2 Pairing,[42],94.3%
same,Change in % H2L2 Pairing with respect to wild type,[42],40.1%
same,% H2L2 Pairing,[43],99.2%
same,Change in % H2L2 Pairing with respect to wild type,[43],45%
same,% H2L2 Pairing,[44],99.6%
same,Change in % H2L2 Pairing with respect to wild type,[44],20%
